In article PMC3583217, “Novel HER2 Aptamer Selectively Delivers Cytotoxic Drug to HER2-positive Breast Cancer Cells in Vitro”:

Target: HER2 extracellular domain (ECD) (UniProt P04626 23-652)
Assay: flow cytometry on protein-coated beads; random-library background subtracted; Hanks buffer (SELEX binding buffer with 0.1 mg/mL salmon sperm DNA and 1 mg/mL BSA), 37 C, 30 min; pH not stated; aptamer pool heated 95 C 5 min then iced in SELEX
Conditions: protein: commercial; tags: covalently coupled to magnetic beads; label: FITC (5' via primer P1 in SELEX)

B1: HB5 (ssDNA)
DNA: AACCGCCCAAATCCCTAAGAGTCTGCACTTGTCATTTTGTATATGTATTTGGTTTTTGGCTCTCACAGACACACTACACACGCACA
  Kd: 316 nM
